Values joined by “and” are separate entries in the source; they are usually repeats but may differ in a detail not shown here. Equal values may be shown once. Read-outs that look alike come from different tables or passages of the source.

Assay [1] addresses T1, Human OSM (human, UniProt P13725 26-221).
T1 sequence: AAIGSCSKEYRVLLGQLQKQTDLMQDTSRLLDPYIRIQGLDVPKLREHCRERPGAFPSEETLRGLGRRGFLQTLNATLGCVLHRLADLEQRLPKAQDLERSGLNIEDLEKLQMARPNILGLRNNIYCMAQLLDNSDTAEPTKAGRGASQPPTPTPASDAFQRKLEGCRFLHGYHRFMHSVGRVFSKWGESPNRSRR
In words: cell-based or functional assay.

A further assay has as its target T2, Rhesus OSM (rhesus macaque, UniProt F7GF43 26-221).
T2 construct: also called rhesus macaque OSM
T2 sequence: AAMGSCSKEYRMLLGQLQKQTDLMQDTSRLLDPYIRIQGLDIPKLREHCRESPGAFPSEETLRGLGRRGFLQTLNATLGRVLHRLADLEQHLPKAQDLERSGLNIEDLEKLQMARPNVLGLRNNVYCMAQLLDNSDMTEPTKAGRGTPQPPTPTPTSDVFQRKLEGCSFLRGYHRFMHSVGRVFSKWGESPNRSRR
The assay is described as follows: Kinexa solution phase affinity. On the procedure:
(§1) Kinexa (Sapidyne Instruments 3200) solution phase affinity was used to determine the overall affinity of anti-OSM antibody H0(huCDRH1)L1 and Humanised 15E10 (an unrelated OSM antibody) to human, cynomolgus macaque, rhesus macaque and marmoset OSM (Table 15). Humanised 15E10 was added for comparison purposes.
(§2) OSM beads were prepared either by adsorption (polymethylmethacrylate beads-PMMA) or amine coupling (NHS-activated sepharose beads). The range of OSM molecules studied necessitated the generation of beads coated with different concentrations of OSM. For the solution phase portion of the assay, a fixed concentration of antibody was incubated with a broad range of OSM concentrations and allowed to reach equilibrium by incubation at r.t. for at least 2 h before analysis proceeded. The OSM beads were then used to determine the amount of free antibody present in the solution phase samples, by means of the free antibody binding to the OSM bead matrix then detected using an appropriate secondary antibody (either anti-human or anti-mouse depending on the construct being tested) labelled with a fluorescent dye. The binding curves where fitted using the Kinexa Pro analysis software inherent to the machine. Multiple runs using varying starting concentrations of antibody were then compiled and analysed using the n-curve analysis software to give a more accurate determination of affinity.

Assay [2] deals with T1, Human OSM. In words: Kinexa solution phase affinity. On the procedure:
as §1, §2

The target in assay [3] is T3, Marmoset OSM (marmoset).
T3 construct: also called Marm OSM
In words: Kinexa solution phase affinity. On the procedure: as §1, §2

Assay [4] has as its target T4, Cynomolgus OSM (cynomolgus, UniProt A0A2K5VPC6 26-221).
T4 construct: also called Cyno OSM; cynomolgus macaque OSM
T4 sequence: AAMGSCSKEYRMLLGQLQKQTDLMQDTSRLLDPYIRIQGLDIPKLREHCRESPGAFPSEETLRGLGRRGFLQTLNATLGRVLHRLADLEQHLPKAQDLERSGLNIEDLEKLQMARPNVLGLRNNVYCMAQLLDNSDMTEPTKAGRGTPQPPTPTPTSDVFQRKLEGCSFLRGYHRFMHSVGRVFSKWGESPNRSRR
In words: Kinexa solution phase affinity. On the procedure: as §1, §2

The target of assay [5] is T1, Human OSM. The assay is described as follows: BIAcore kinetics, purified antibody. A general note: SPR reads the build-up and loss of mass on a sensor chip optically.
Assay [6] concerns the target T4, Cynomolgus OSM. In words: BIAcore kinetics, purified antibody.
Assay [7] concerns the target T1, Human OSM. In words: cell-based or functional assay. The source holds these as a separate data set.
Assay [8] concerns the target T1, Human OSM. In words: cell-based or functional assay. The source holds these as a separate data set.
The target in assay [9] is T4, Cynomolgus OSM. In words: cell-based or functional assay.
The target in assay [10] is T1, Human OSM. The assay is described as follows: cell-based or functional assay. This is another data set of the same source.
The target of assay [11] is T1, Human OSM. In words: cell-based or functional assay. The source holds these as a separate data set.
Assay [12] deals with T1, Human OSM. In words: cell-based or functional assay. The source holds these as a separate data set.
Assay [13] concerns the target T1, Human OSM. The assay is described as follows: BIAcore kinetics, purified antibody. The source holds these as a separate data set.
Assay [14] addresses T4, Cynomolgus OSM. The assay is described as follows: BIAcore kinetics, purified antibody. The source holds these as a separate data set.
Assay [15] has as its target T5, Endogenous human OSM (neutrophil-derived) (human, UniProt P13725 26-221, limits assumed).
T5 construct: Native OSM generated from GM-CSF stimulation of healthy human neutrophils; also called native OSM; endogenous OSM
T5 sequence: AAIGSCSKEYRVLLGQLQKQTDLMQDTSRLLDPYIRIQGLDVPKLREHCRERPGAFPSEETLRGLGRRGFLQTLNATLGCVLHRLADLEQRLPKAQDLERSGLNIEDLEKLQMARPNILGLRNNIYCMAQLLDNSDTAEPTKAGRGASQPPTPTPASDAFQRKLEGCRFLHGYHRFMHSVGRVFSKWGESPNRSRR
In words: gp130 ELISA with endogenous neutrophil-derived human OSM. A general note: ELISA stands for enzyme-linked immunosorbent assay.

Assay [16] concerns the target T1, Human OSM. In words: cell-based or functional assay. The source holds these as a separate data set.
Assay [17] has as its target T1, Human OSM. The assay is described as follows: cell-based or functional assay. The source holds these as a separate data set.
Assay [18] deals with T1, Human OSM. In words: cell-based or functional assay. This is another data set of the same source.
Assay [19] has as its target T1, Human OSM. In words: BIAcore kinetics.
The target of assay [20] is T4, Cynomolgus OSM. The assay is described as follows: BIAcore kinetics.
The target of assay [21] is T3, Marmoset OSM. The assay is described as follows: cell-based or functional assay.
The target in assay [22] is T1, Human OSM. In words: cell-based or functional assay. This is another data set of the same source.
For assay [23], the target named is T4, Cynomolgus OSM. The assay is described as follows: cell-based or functional assay. The source holds these as a separate data set.
Assay [24] addresses T1, Human OSM. The assay is described as follows: human gp130 ELISA, inhibition of OSM binding to gp130.
The target of assay [25] is T4, Cynomolgus OSM. Described as above.

B1: 15E10h, non-competitive anti-OSM humanised antibody (antibody, human IgG1, kappa, V domains shown)
VH: QVQLVESGGGVVQPGRSLRLSCAASGFSLTNYGVHWVRQAPGKGLEWVAVIWRGGSTDYNAAFMSRFTISKDNSKNTLYLQMNSLRAEDTAVYYCAKSPNSNFYWYFDVWGRGTLVTVSS
VL: EIVLTQSPATLSLSPGERATLSCSGSSSVSYMYWYQQKPGQAPRLLIEDTSNLASGIPARFSGSGSGTDYTLTISNLEPEDFAVYYCQQWSSYPPTFGQGTKLEIKR
notes: also called Humanised 15E10; humanised 15E10
B1: in the assay with Human OSM [1], the “IC50 (read off the curve); MCP-1 release from IPF human lung fibroblasts stimulated with 3 ng/ml OSM” value was roughly 2 µg/mL. In addition, the Kd with Rhesus OSM worked out at 0.102 nM; with Human OSM [2] it was 0.727 nM; with Marmoset OSM [3], 6.1 nM; with Cynomolgus OSM [4] it was 0.102 nM; in the assay with Human OSM [5], 0.882 nM; with Cynomolgus OSM [6] it was 0.64 nM. The Kd was determined as 1.43 nM with Human OSM [13] and 0.59 nM with Cynomolgus OSM [14]. Besides, the koff was 0.000649 s⁻¹ with Human OSM [5], 0.000324 s⁻¹ in the assay with Cynomolgus OSM [6], 0.000615 s⁻¹ with Human OSM [13] and 0.00031 s⁻¹ with Cynomolgus OSM [14]. The kon worked out at 736000 M⁻¹ s⁻¹ in the assay with Human OSM [5], 507000 M⁻¹ s⁻¹ in the assay with Cynomolgus OSM [6], 429000 M⁻¹ s⁻¹ in the assay with Human OSM [13] and 526000 M⁻¹ s⁻¹ with Cynomolgus OSM [14]. Also, the “IC50 (read off the curve); IL-6 release from HFLS-RA cells stimulated with 3 ng/ml human OSM” value with Human OSM [7] is roughly 2 nM. Further, the “KB cell neutralisation assay, mean IC50” value with Human OSM [8] is 0.0391 µg/ml and 261 pM; with Cynomolgus OSM [9] it was 0.0054 µg/ml and 36 pM. For the same molecule, in the assay with Human OSM [10], the “IC50 (read off the curve); IL-6 release from normal human lung fibroblasts stimulated with 3 ng/ml OSM” value was roughly 0.6 µg/mL. Also, in the assay with Human OSM [11], the “IC50 (read off the curve); MCP-1 release from HFLS-RA cells stimulated with 0.3 ng/ml human OSM” value is roughly 0.2 nM. The “IC50 (read off the curve); IL-6 release from HFLS-RA cells stimulated with 0.3 ng/ml human OSM” value in the assay with Human OSM [12] was roughly 0.1 nM. Also, in assay [15], the IC50 is 0.076 µg/mL and 0.507 nM. Also, the “IC50 (read off the curve); MCP-1 release from normal human lung fibroblasts stimulated with 3 ng/ml OSM” value with Human OSM [16] is roughly 1 µg/mL. Moreover, in the assay with Human OSM [17], the “IC50 (read off the curve); IL-6 release from IPF human lung fibroblasts stimulated with 3 ng/ml OSM” value is roughly 1 µg/mL. In the assay with Human OSM [18], the “IC50 (read off the curve); MCP-1 release from HFLS-RA cells stimulated with 3 ng/ml human OSM” value was roughly 2 nM.

B2: 2B7, murine anti-OSM mAb (antibody, V domains shown)
VH: EVQLVESGGGLVKPGGSLKLSCAASGFTFSNYAMSWVRQTPEKRLEWVATISDGGGYTYYLDNGQGRFTISRDNAKNNLYLQMSHLKSEDTAMYYCARDVGLTTFWYFDVWGTGTTVTVSS
VL: DIVLTQSPVSLVISLGQRATISCRASKSVSPSSYNFMHWYQQRPGQPPKLLITYASNLESGVPARFSGSGSGTDFTLNIHPVEEEDAATYYCQHSREFPFTFGGGTRLEIK
notes: Mouse hybridoma mAb; also called 2B7/A6; 2B7.A6
As to B2, the results for the Kd with Human OSM [19] and with Cynomolgus OSM [20] were 2.09 nM and 9.31 nM, respectively. Moreover, the “IC50 (read off the curve); IL-6 release from KB cells stimulated with marmoset OSM” value with Marmoset OSM [21] is roughly 0.05 µg/mL. For the same molecule, the “KB cell neutralisation assay, mean IC50” value is 0.049 µg/ml and 327 pM with Human OSM [22]; 0.344 µg/ml and 2.3 nM in the assay with Cynomolgus OSM [23]. The IC50 was 0.08 µg/mL and 0.533 nM with Human OSM [24]; 0.14 µg/mL and 0.993 nM in the assay with Cynomolgus OSM [25].

By Kd is commonly meant a measure of binding affinity in units of concentration. The koff is the rate constant with which the complex falls apart. Low values mean slow dissociation, high ones fast dissociation. One may read the kon as the second-order rate constant of association. High values mean faster complex formation, low ones slower complex formation. What is called IC50 is the point on the concentration scale where inhibition reaches its midpoint. A lower IC50 goes with greater potency.
